# Data: publication PMC7591906, “pHLIP ICG for delineation of tumors and blood flow during fluorescence-guided surgery” (Scientific Reports, 2020)
# “Also recorded” adds a separate entry of the source. Peptide text beside a SMILES is read from it. * marks the point of attachment. X1 = CC1(C)C(/C=C/C=C/C=C/C=C2/N(CCCCCC(=O)NCCN3C(=O)CC(*)C3=O)c3ccc4ccccc4c3C2(C)C)=[N+](CCCCS(=O)(=O)[O-])c2ccc3ccccc3c21
# Tests used:
# [1] = Local tolerance/irritancy in New Zealand white rabbits (GLP); assay type: in vivo; conditions: single 0.124 and 1.86 mg/kg, i.v., intra-arterial, perivenous and subcutaneous
# Description: The objective of this GLP study performed at CRL was to compare the i.v., intra-arterial, perivascular and subcutaneous routes for potential irritation following a single injection of pHLIP ICG in the rabbits.
# The following parameters and end points were evaluated in this study: clinical signs, local irritation assessment, body weights (for dose calculation only), and histopathology of the injection sites. There were no clinical signs, local irritation or any microscopic changes associated with pHLIP ICG during the study.
# 4T1 tumor = test: Biodistribution and kinetics, ex vivo fluorescence imaging of organs; assay type: in vivo, BALB/c mice; conditions: post-administration, decay after 6 h
# Description: BALB/cAcNHsd mice ranging in age from 5 to 6 weeks obtained from Envigo RMS, Inc. were used in the study. Mouse mammary 4T1 cancer cells were subcutaneously implanted in the right flank (8 x 10^5 cells/0.1 mL/flank) of adult female or male mice. The triple-negative 4T1 tumor model closely mimics stage IV of human breast cancer. When tumors reached […] in diameter, single tail vein injections of 0.5 mg/kg of pHLIP ICG in sterile PBS, or PBS with 5% DMSO or 5% Ethanol (vol:vol) (volume of the injection was 100 μl) were performed. Animals were euthanized 5 min, 1, 2, 4, 6, 16, 26 and 48 hrs after pHLIP ICG administration. Several animals were used for each time point plus seven control animals (no pHLIP ICG administration). Tumor, muscles, skin, heart, lungs, liver, spleen, kidneys, brain, pancreas, bone, stomach, small and large intestines were collected, and imaged immediately after necropsy. […] The background signal was determined by introducing an intensity threshold. All the pixels with intensity above the set threshold were counted and the average intensity per pixel was calculated. For organs for which the highest illumination light intensity produced a saturated image, the medium illumination light intensity images were analyzed, then converted to a comparison using experimentally established conversion curves.
# [2] = Pharmacokinetics in mice, single i.v. injection; assay type: in vivo, B6D2F1 mice; conditions: single i.v. 12.3 mg/kg
# Description: The purpose of this study, performed at MSK, was to determine the pharmacokinetic parameters of pHLIP ICG in 3 female B6D2F1 mice following a single i.v. injection of pHLIP ICG at a dose of 12.3 mg/kg. Blood was collected in EDTA tubes at 5, 15, 30 minutes, and 1, 2, 4, 6, 8, 16, and 24 hours post-injection, followed by centrifugation to separate the plasma, and flash frozen. At time of analysis, samples were thawed, extracted, and analyzed via LC-MS as per the validated protocol using pHLIPIS.
# implanted tumors = test: Fluorescence-guided resection of tumors, dose finding; assay type: in vivo, mice; conditions: tail vein, doses 0.5 to 2.5 mg/kg, resection at 24 and 48 h, Stryker SPY-PHI
# Description: Targeting of murine and human tumors was shown in 8 different tumor models in athymic female nude mice (strain Hsd Athymic Nude-Foxn1nu) ranging in age from 5 to 6 weeks (obtained from Envigo RMS, Inc). The following tumors were established by subcutaneous injection of 1 x 10^6 cells/0.1 ml/flank in flanks of athymic nude mice: HeLa (humans cervical adenocarcinoma), M4A4 (human epithelial carcinoma), 4T1 (murine breast tumor), A549 (human lung carcinoma), LLC (murine Lewis Lung carcinoma), UM-UC3 (human urinary bladder cancer), and 4 x 10^6 cells/0.1 ml/flank of LNCaP tumor (human prostate cancer). Human MDA-MB-231 (breast adenocarcinoma) tumors were established by injections of 1 x 10^6 cells/0.05 ml in the mammary fat pad. […] Finally, surgery was carried out under fluorescence-guidance to remove tumor and to image the tumor bed using the Stryker SPY-PHI handheld clinical imaging system.
# [3] = cited from earlier work
# Text: Since pHLIP peptides offer a unique approach to the targeting of a spectrum of tumor subtypes, we were motivated to develop a fluorescent pHLIP candidate in order to improve the surgical resection of tumors guided by fluorescence. After testing a variety of fluorescent dyes with pHLIP peptides, we chose a widely used clinical fluorescent dye, indocyanine green (ICG). In addition to its long record of safety, ICG was chosen to couple to pHLIP peptide as a clinical imaging candidate for two main reasons: first, the fluorescence of pHLIP ICG is enhanced about 20 times when pHLIP tethers ICG t ...
# [4] = test system: human mammary epithelial cells (HMEpC); test: Cytotoxicity, cell viability (CellTiter 96 AQueous One); assay type: cell-based; conditions: 0.125 up to 16 µM, 72 h, absorbance 490 nm, triplicate
# Description: Human mammary epithelial cells (HMEpC) acquired from Cell Applications, Inc. were authenticated and stored according to supplier’s instructions. Cells were cultured in mammary epithelial cell growth medium provided by the manufacturer. HMEpC cells were loaded in the wells of 96-well plates (~6,000 cells per well) and incubated overnight. Increasing amounts of pHLIP ICG dissolved in cell growth medium were added to cells to give the following final concentrations of pHLIP ICG with cells: 0.125, 0.25, 0.5, 1, 2, 4, 8 and 16 μM. After 48 and 72 hours of incubation, a colorimetric reagent (CellTiter 96 AQueous One Solution Assay, Promega) was added for 2 hours followed by measuring absorbance at 490 nm to assess cell viability. All samples were prepared in triplicate and each experiment was repeated several times.
compound,measurement,setting,value
CC(C)C[C@H](NC(=O)[C@H](Cc1ccc(O)cc1)NC(=O)[C@H](C)NC(=O)[C@H](CCCNC(=N)N)NC(=O)[C@H](Cc1c[nH]c2ccccc12)NC(=O)[C@@H]1CCCN1C(=O)[C@H](CC(N)=O)NC(=O)[C@H](CCC(N)=O)NC(=O)[C@H](CC(=O)O)NC(=O)[C@H](CC(=O)O)NC(=O)[C@H](CSC1CC(=O)N(CCNC(=O)CCCCCN2/C(=C/C=C/C=C/C=C/C3=[N+](CCCCS(=O)(=O)[O-])c4ccc5ccccc5c4C3(C)C)C(C)(C)c3c2ccc2ccccc32)C1=O)NC(=O)[C@H](C)N)C(=O)N[C@@H](CC(=O)O)C(=O)N[C@@H](CC(C)C)C(=O)N[C@@H](CC(C)C)C(=O)N[C@@H](Cc1ccccc1)C(=O)N1CCC[C@H]1C(=O)N[C@H](C(=O)N[C@@H](CC(=O)O)C(=O)N[C@H](C(=O)N[C@@H](CC(C)C)C(=O)N[C@@H](CC(C)C)C(=O)N[C@@H](CC(C)C)C(=O)N[C@@H](CC(=O)O)C(=O)N[C@@H](CC(C)C)C(=O)N[C@@H](CC(C)C)C(=O)N[C@@H](Cc1c[nH]c2ccccc12)C(=O)N[C@@H](C)C(=O)O)[C@@H](C)O)[C@@H](C)O (stereo partly drawn) [pHLIP ICG] (H-AC(X1)DDQNPWRAYLDLLFPTDTLLLDLLWA-OH),Local tolerance,[1],well tolerated; also recorded: well-tolerated and did not result in any pHLIP ICG-related changes
same,Time of maximum signal in the liver,4T1 tumor,1 h
same,clearance,"[2]; female, B6D2F1, mouse, plasma, iv, mean, read-out: Clearance (Cl) (converted)",0.159 mL/min/kg
same,half-life,"[2]; female, B6D2F1, mouse, plasma, iv, mean, read-out: Elimination half-time (T1/2) (converted)",3.9 h
same,Vd,"[2]; female, B6D2F1, mouse, plasma, iv, mean, read-out: Volume of distribution (Vz)",0.0535 L/kg
same,Systemic exposure quantifiable up to,[2]; LC-MS,up to 16 hours
same,Minimal dose sufficient for successful visualization of tumors,implanted tumors,0.5 mg/kg
same,Fluorescence enhancement when tethered to the membrane vs aqueous solution,[3],about 20 times
same,Cytotoxic effect (cell viability),[4],did not show any cytotoxic effect at any tested concentration
